This assay deals with bioluminescent capsule containing ALuc16 in its frame structure (DEVD sequence as cargo). Kind of assay: cell-based or functional assay.
Sequence of bioluminescent capsule containing ALuc16 in its frame structure (DEVD sequence as cargo) (chain, as listed by the source, form in doubt): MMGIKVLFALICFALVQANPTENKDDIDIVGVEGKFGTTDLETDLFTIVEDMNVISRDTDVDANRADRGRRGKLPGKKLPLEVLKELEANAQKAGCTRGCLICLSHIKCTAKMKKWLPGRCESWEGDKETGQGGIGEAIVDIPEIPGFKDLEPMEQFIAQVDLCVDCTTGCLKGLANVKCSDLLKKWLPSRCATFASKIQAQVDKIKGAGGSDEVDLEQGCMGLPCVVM

Regarding Caspase-3 (enzyme), the luminescence intensity of COS-7 cells with versus without STS (two minutes), LAS-4000 image worked out at 2 folds.

(Values after patent publication US20150284813A1.)
